The labels stand for the following.
B1: CD3.23-L7 (AC3364) (bispecific antibody, V domains shown)
VH: EVQLLESGGGIVQPGGSLKLSCAASGFTFNTYAMNWVRQAPGKGLEWVARIRSKYNNYATYYADSVKDRFTISRDDSKNTVYLQMNNLKTEDTAVYYCVRHENFGNSYVSWFAHWGQGTLVTVSS
VL: ELVVTQEPSLTVSPGGTVTLTCRSSNGAVTSSNYANWVQQKPGQAPRGLIGGTNKRAPGTPARFSGSLLGGKAALTLSGVQPEDEAVYYCALWYPNLWVFGGGTKLTVL
B2: CD3.80 (AC3409) (bispecific antibody, V domains shown)
VH: B1 VH with Y58G
VL: B1 VL
B3: CD3.42 (AC3371) (bispecific antibody, V domains shown)
VH: B1 VH with V48G
VL: B1 VL
B4: CD3.77 (AC3406) (bispecific antibody, V domains shown)
VH: B1 VH with N56E
VL: B1 VL
B5: CD3.85 (AC3414) (bispecific antibody, V domains shown)
VH: B1 VH with Y61D
VL: B1 VL
B6: CD3.74 (AC3403) (bispecific antibody, V domains shown)
VH: B1 VH with Y55T
VL: B1 VL
B7: CD3.86 (AC3415) (bispecific antibody, V domains shown)
VH: B1 VH with Y61E
VL: B1 VL
B8: CD3.40 (AC3369) (bispecific antibody, V domains shown)
VH: B1 VH with V48A
VL: B1 VL
B9: CD3.48 (AC3377) (bispecific antibody, V domains shown)
VH: B1 VH with A49G
VL: B1 VL
B10: CD3.96 (AC3425) (bispecific antibody, V domains shown)
VH: B1 VH with Y82D
VL: B1 VL
B11: CD3.68 (AC3397) (bispecific antibody, V domains shown)
VH: B1 VH with K54P
VL: B1 VL
B12: CD3.70 (AC3399) (bispecific antibody, V domains shown)
VH: B1 VH with Y55R
VL: B1 VL
B13: CD3.99 (AC3428) (bispecific antibody, V domains shown)
VH: B1 VH with N87E
VL: B1 VL
B14: CD3.97 (AC3426) (bispecific antibody, V domains shown)
VH: B1 VH with Y82G
VL: B1 VL
B15: CD3.44 (AC3373) (bispecific antibody, V domains shown)
VH: B1 VH with V48T
VL: B1 VL
B16: CD3.39 (AC3368) (bispecific antibody, V domains shown)
VH: B1 VH with W47E
VL: B1 VL
B17: CD3.67 (AC3396) (bispecific antibody, V domains shown)
VH: B1 VH with S53T
VL: B1 VL
B18: CD3.75 (AC3404) (bispecific antibody, V domains shown)
VH: B1 VH with Y55W
VL: B1 VL
B19: CD3.83 (AC3412) (bispecific antibody, V domains shown)
VH: B1 VH with A59G
VL: B1 VL
B20: CD3.72 (AC3401) (bispecific antibody, V domains shown)
VH: B1 VH with Y55K
VL: B1 VL
B21: CD3.89 (AC3418) (bispecific antibody, V domains shown)
VH: B1 VH with Y62E
VL: B1 VL
B22: CD3.38 (AC3367) (bispecific antibody, V domains shown)
VH: B1 VH with W47D
VL: B1 VL
B23: CD3.84 (AC3413) (bispecific antibody, V domains shown)
VH: B1 VH with A59T
VL: B1 VL
B24: CD3.43 (AC3372) (bispecific antibody, V domains shown)
VH: B1 VH with V48S
VL: B1 VL
B25: CD3.60 (AC3389) (bispecific antibody, V domains shown)
VH: B1 VH with R52Q
VL: B1 VL
B26: CD3.23-D (AC3366) (bispecific antibody, V domains shown)
VH: B1 VH
VL: B1 VL
B27: CD3.92 (AC3421) (bispecific antibody, V domains shown)
VH: B1 VH with Y62W
VL: B1 VL
B28: CD3.98 (AC3427) (bispecific antibody, V domains shown)
VH: B1 VH with Y82S
VL: B1 VL
B29: CD3.54 (AC3383) (bispecific antibody, V domains shown)
VH: B1 VH with I51A
VL: B1 VL
B30: CD3.82 (AC3411) (bispecific antibody, V domains shown)
VH: B1 VH with Y58W
VL: B1 VL
B31: CD3.81 (AC3410) (bispecific antibody, V domains shown)
VH: B1 VH with Y58F
VL: B1 VL
B32: CD3.41 (AC3370) (bispecific antibody, V domains shown)
VH: B1 VH with V48E
VL: B1 VL
B33: CD3.56 (AC3385) (bispecific antibody, V domains shown)
VH: B1 VH with I51T
VL: B1 VL
B34: CD3.79 (AC3408) (bispecific antibody, V domains shown)
VH: B1 VH with N57E
VL: B1 VL
B35: CD3.69 (AC3398) (bispecific antibody, V domains shown)
VH: B1 VH with Y55A
VL: B1 VL
B36: CD3.90 (AC3419) (bispecific antibody, V domains shown)
VH: B1 VH with Y62Q
VL: B1 VL
B37: CD3.45 (AC3374) (bispecific antibody, V domains shown)
VH: B1 VH with V48W
VL: B1 VL
B38: CD3.94 (AC3423) (bispecific antibody, V domains shown)
VH: B1 VH with A63P
VL: B1 VL
B39: CD3.73 (AC3402) (bispecific antibody, V domains shown)
VH: B1 VH with Y55P
VL: B1 VL
B40: CD3.91 (AC3420) (bispecific antibody, V domains shown)
VH: B1 VH with Y62G
VL: B1 VL
B41: CD3.95 (AC3424) (bispecific antibody, V domains shown)
VH: B1 VH with D68G
VL: B1 VL
B42: CD3.71 (AC3400) (bispecific antibody, V domains shown)
VH: B1 VH with Y55G
VL: B1 VL
B43: CD3.88 (AC3417) (bispecific antibody, V domains shown)
VH: B1 VH with Y62D
VL: B1 VL
B44: CD3.93 (AC3422) (bispecific antibody, V domains shown)
VH: B1 VH with A63K
VL: B1 VL
B45: CD3.87 (AC3416) (bispecific antibody, V domains shown)
VH: B1 VH with Y61T
VL: B1 VL
B46: CD3.78 (AC3407) (bispecific antibody, V domains shown)
VH: B1 VH with N57D
VL: B1 VL

Numbering of substitutions follows the chain as printed.

CD3 (target of the Pool 1 CD3.23 screen), sequence (P07766 23-126): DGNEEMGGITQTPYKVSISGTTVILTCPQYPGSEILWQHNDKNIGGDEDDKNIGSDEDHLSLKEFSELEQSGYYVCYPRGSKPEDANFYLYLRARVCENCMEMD

This experiment has as its target CD3 (target of the Pool 1 CD3.23 screen). Nature of the experiment: Octet, crude lysate.
Regarding B1, the Kd (as a rule, the free concentration of one partner at which half of the binding sites on the other are occupied at equilibrium, for simple one-to-one binding) was determined as 8.5 nM.

Molecule B2 gave a Kd of 11.3 nM.

Consider B3, for which the Kd stood at 71.5 nM.

B4: the Kd worked out at 575 nM.

As to B5, the Kd turned out to be 939 nM.

In turn, B6 registered a Kd of 11.1 nM.

B7 gave a Kd of 183 nM.

Molecule B8 registered a Kd of 8.3 nM.

With B9, the Kd was 4.5 nM.

Take B10: the Kd was 9.8 nM.

Turning to B11, the Kd came out at 51 nM.

Consider B12, for which the Kd came to 3.8 nM.

Regarding B13, the Kd is 5.9 nM.

B14: the Kd came out at 121 nM.

In turn, B15 returned a Kd of 5.7 nM.

B16 had a Kd of 18.1 nM.

As to B17, the Kd came to 4.8 nM.

In the case of B18, the Kd came out at 10.5 nM.

The molecule B19 had a dissociation constant Kd of 8.2 nM.

Take B20: the Kd was 5.1 nM.

In the case of B21, the Kd stood at 9.7 nM.

In turn, B22 yielded a Kd of 40.2 nM.

For the molecule B23, the Kd was found to be 10.7 nM.

For B24, the Kd amounted to 11.2 nM.

For B25, the Kd amounted to 434 nM.

B26 displayed a Kd of 14 nM.

In turn, B27 came in with a Kd of 37.2 nM.

The molecule B28 registered a Kd of 9.6 nM.

Consider B29, for which the Kd amounted to 1180 nM.

Turning to B30, the Kd was found to be 7.8 nM.

Consider B31, for which the Kd was determined as 6.1 nM.

In turn, B32 gave a Kd of 165 nM.

On to B33, for which the Kd amounted to 425 nM.

On to B34, for which the Kd was found to be 8.3 nM.

Turning to B35, the Kd stood at 11.5 nM.

In turn, B36 displayed a Kd of 7.2 nM.

On to B37, for which the equilibrium dissociation constant (Kd) was determined as 34300 nM.

In turn, B38 gave a Kd of 8.2 nM.

B39 gave a Kd of 33.1 nM.

As for B40, the Kd turned out to be 8.3 nM.

In turn, B41 had an equilibrium dissociation constant (Kd) of 5.4 nM.

For the molecule B42, the Kd was 20.1 nM.

Molecule B43 yielded a Kd of 63.2 nM.

The molecule B44 displayed a Kd of 8 nM.

Molecule B45 showed a Kd of 17.9 nM.

B46 yielded a Kd of 7.4 nM.

The values are drawn from patent US20250188184A1.
